Measurements reported in patent US20210284747A1 (CAPELLA BIOSCIENCE, published 2021).

Biological target: T1, Human LIGHT-214E, full length, expressed on cells (human, UniProt O43557 1-240)
T1 construct: also called membrane LIGHT
Assay: flow cytometry, HEK293FF human LIGHT cells

| Binder | EC50 |
| --- | --- |
| LTβR-Fc (R&D Systems) (Fc fusion, UniProt P36941 28-227, looked up, also called LTBR-Fc; biotin-LTβR-Fc; not shown: Fc part of the bought fusion; not described) SQPQAVPPYASENQTCRDQEKEYYEPQHRICCSRCPPGTYVSAKCSRIRDTVCATCAENSYNEHWNYLTICQLCRPCDPVMGLEEIAPCTSKRKTQCRCQPGMFCAAWALECTHCELLSDCPPGTEAELKDEVGKGNNHCVPCKAGHFQNTSSPSARCQPHTRCENQGLVEAAPGTAQSDTTCKNPLEPLPPEMSGTMLM | 15 nM |
| HVEM-Fc (R&D Systems) (Fc fusion, UniProt Q92956 37-202, looked up, unlabelled in the Fab screen; also called biotin-HVEM-Fc; not shown: Fc part of the bought fusion; not described) PALPSCKEDEYPVGSECCPKCSPGYRVKEACGELTGTVCEPCPPGTYIAHLNGLSKCLQCQMCDPAMGLRASRNCSRTENAVCGCSPGHFCIVQDGDHCAACRAYATSSPGQRVQKGGTESQDTLCQNCPPGTFSPNGTLEECQHQTKCSWLVTKAGAGTSSSHWV | 45 nM |
